Assay results taken from article PMC8639918 (2021).

Biological target: PHR2^(230–426 L348A/L358A/I362A) (rice, UniProt Q6Z156 230-426, L348A | L358A | I362A)
Assay: ITC; with InsP6

B1: SPX1^1–259 (C-terminally truncated fragment of rice SPX1) (domain or fragment)
chain: MKFGKSLSSQIVETLPEWRDKFLSYKDLKKRLKLIGGGGGGEERQAKRARVAADGGEEEAAAAAMTPEEAGFMRLLEAELDKFNSFFVEKEEEYIIRQKELQDRVARAAGRESKEELMRVRKEIVDFHGEMVLLENYSALNYTGLVKILKKYDKRTGALIRLPFIQKVLQQPFFTTDLLYKLVKQCEAMLDQLLPSNELSVSSEDGRGDSTNEDKPSNPSSSLVNGGTIPELDEIEYMESMYMKGTVAALRSLKEIRSG
In the case of B1, the Kd is reported as 140 nM.
